Where two headings read alike, the source gives them in different places.
Legend:
BSA (bovine) [1] = molecular target: BSA (bovine) (UniProt P02769); assay: ELISA, BSA coated as negative control, binder 1 µg/mL, chemiluminescence
BSA (bovine) [2] = molecular target: BSA (bovine) (UniProt P02769); assay: as above; remark: listed apart in the source

Sequence of BSA (bovine) (P02769 25-607 limits assumed): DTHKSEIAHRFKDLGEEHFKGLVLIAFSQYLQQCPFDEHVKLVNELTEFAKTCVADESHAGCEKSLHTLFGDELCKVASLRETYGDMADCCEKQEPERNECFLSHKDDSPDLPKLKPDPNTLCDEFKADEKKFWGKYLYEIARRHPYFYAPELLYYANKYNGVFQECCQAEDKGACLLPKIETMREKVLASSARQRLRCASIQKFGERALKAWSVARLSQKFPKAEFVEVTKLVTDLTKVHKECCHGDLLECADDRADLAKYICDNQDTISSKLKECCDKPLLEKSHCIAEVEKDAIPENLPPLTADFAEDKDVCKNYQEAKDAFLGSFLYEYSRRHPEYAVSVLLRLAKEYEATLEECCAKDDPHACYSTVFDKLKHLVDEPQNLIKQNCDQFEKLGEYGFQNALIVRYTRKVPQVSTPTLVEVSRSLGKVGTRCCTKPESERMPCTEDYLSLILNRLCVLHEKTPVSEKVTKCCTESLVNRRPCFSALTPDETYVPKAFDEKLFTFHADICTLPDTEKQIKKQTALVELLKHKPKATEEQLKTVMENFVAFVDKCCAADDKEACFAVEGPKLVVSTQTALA
Sequence of BD23 (antibody) (VH): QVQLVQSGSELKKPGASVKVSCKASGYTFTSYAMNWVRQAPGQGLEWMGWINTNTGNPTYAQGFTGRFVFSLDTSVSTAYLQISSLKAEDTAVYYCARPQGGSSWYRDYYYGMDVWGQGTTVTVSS
Sequence of BD23 (antibody) (VL): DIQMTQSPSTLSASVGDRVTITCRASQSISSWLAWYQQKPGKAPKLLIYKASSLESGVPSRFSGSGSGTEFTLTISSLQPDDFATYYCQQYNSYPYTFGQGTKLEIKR
Sequence of CR3022 (antibody) (VH): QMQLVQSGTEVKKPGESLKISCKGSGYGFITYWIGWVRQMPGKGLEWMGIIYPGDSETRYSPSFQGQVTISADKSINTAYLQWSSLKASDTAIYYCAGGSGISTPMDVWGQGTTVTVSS
Sequence of CR3022 (antibody) (VL): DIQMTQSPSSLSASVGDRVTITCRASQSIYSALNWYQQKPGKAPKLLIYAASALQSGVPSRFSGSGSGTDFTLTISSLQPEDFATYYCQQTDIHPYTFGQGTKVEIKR

Substance | signal intensity (BSA (bovine) [1]) | signal intensity (BSA (bovine) [2])
BD23 (antibody) | 13 | 83
CR3022 (antibody) | 63 | 53
CV30 (antibody) | 73 | 33
REGN10933 (antibody) | 53 | 63
REGN10987 (antibody) | 43 | 63

Reference: patent publication US20240255507A1
